{"source": "the DeepSol protein solubility set", "data": [{"experiment": "soluble on expression in E. coli; label from the status in PepcDB or PDB records", "values": [{"sequence": "MSLDSIKVKNEYEKLTGSDSVVRRGMFNVYQKKNDYYFEIPSTLLERDMLVVNKLQRVPAELNEAGVNRGTNYENQMIRFELDKSANKLLIRQSRPLPISPSEDAISQSVKDNYISPLIAGFKVEAYNNDSTSILIKVNDIYDGTETSINNVFTNINLGTSAIKNLSRILSIKSFDNNVVATSELTTRVTEGTTTIYVTVEVSSSILLLPEVPMTGRLDNPRVGYFTNPLTNFSDGQQRVNKKQFITRWRLEPRPEDRAAYLRGELVEPRKPIVFYIENSTPYRWRKYIKQGIEDWQVAFERAGFKNAIIAKDITEDMEVDMDDVNYSVLTYAASTKANAMGPSILDPRSGEILEADIMWWHNVLSMLQEWITVQTGVVRPEARGVALPDSLMGDAMRFVACHEVGHSLGLRHNMMGSWAFPTDSLRSKTFTDRMNSTSSSIMDYARFNYVAQPGDGIKALSPHIGPYDMFAIEYGYRWYGKQTPEEEKELLQDFLAKHTDRLYKYSEAQDPRDAVDPRAQNEDLGDDPIRSSQYGIANLKCIVPQIIQWTTTGEKGQTYEEASRLYYAVINQWNNYLYHVMANIGGIYIENTTVGDGEKTYTFVEKEKQQAALRFLLDEVLCYPKWLFDPEIAQYTYLLKNTPLGVVENAPTQVLKNAQAYVFWDLLSNNRLMRMLENESVNGKKAFTAVELMDGLHKSIFAVTERGGLPDVMTRNLQKGFVDALITAAAESEGVKVNKKLIDNHFLFDLQTPICSCDDHVHRSAHTDRMGARRELNFYGSQINRISDAISVKRGELLRIKDLLQSRLGTSDVATKYHYKDLILRINTALGISKEGHHHHHH", "soluble on expression in E. coli": "soluble"}, {"sequence": "MSLDSIVNAYEESDVLDPRTDAERPSVPPVIKPVDLGPVHVETPVVLSPMAGVTNWPFRVICESYGPDGLYVAEMITARALVARNPKALRLCRFAPSEKIRSLQLYGVNPSIVEQAAKIVIDENMADHVDLNFGCPVPKVTRRGGGSALPWKTDLFREIIQRVVKVCDAANVPVTAKIRVGIDHEHETFLEAGHIAQEEGCKAVTLHARTTAEYYGGHSDWSRIGELVSELDIPVFGNGDIWGANDALAMVAETGCAGVAIGRGCQGRPWLFADIKNAFAGSDERVDPTLGDVCRVIERHAELLTEFYDEGHHHHHH", "soluble on expression in E. coli": "not soluble"}, {"sequence": "MSLDVSEGGVTVSVPTASGGGEGAADDVFFNATQELNRDLTVATLAAFREREPRAASYLDAMTASGIRGVRAANAGWDVTMADVDADAVELATSNLARNGLDGEVVARDANSLLHDHDRVLDVVDIDPFGSPMPFADAAFANARNLVCVTATDTAPLCGAHFESGVRKYSATPRNTNYHAEMGLRILLGALARTAARYDVGVTPILSHVSDHYVRTYLELDHRATDANAAVEQVGHVYHCQQCLSRDHEYGLVAAPRAECPRCGGHQVLTAGPLWLGPAHEEAFAASVREQLTREMGEASQAFHLLQTIEGELHEPTHYDQHRLYSQWGEPAVGMAEFLDQLRDAGLRASRTHFGGTTFKTDGGLAEVEAAVLEGHHHHHH", "soluble on expression in E. coli": "not soluble"}, {"sequence": "MSLDVTNRIERALTEALNQADMAGCPPRLAAAMRSAVFPRGARVRPRLCHSVALACGEDNPGITEAAGAALELMHCASLIHDDLPCFDGADLRRGRPSVHKAFGEPLAVLAGDAMIVLAFQTIARAEGQADRLLKLTQIIGGAVGVPFGIVAGQAWECETEINLAHYHRSKTGALFVAATAMGAASAGSDPEPWRMVGEKIGEAYQVADDLRDAAADVEEIGKPVGQDVAHDRPSAVREMGIDGAIYHLKSLVRGAVEAMPECTNGNELRSLIMSEATRLVPAEGHHHHHH", "soluble on expression in E. coli": "soluble"}, {"sequence": "MSLDWQTLLTRERLGKPVHSNDELGRSAFHKDHDRIIFSGAFRRLGRKTQVHPVSSNDHIHTRLTHSLEVACVGRSLGMRVGEILREELPEWCDPSDLGVIVQSACLAHDIGNPPFGHSGEDAIRNWFQQAAGRGWLDEMSDAERSDFLHFEGNAQGFRVLTQLEYHQFDGGTRLTYATLGTYLKYPWTSRHAEALGYKKHKFGCYQSELPLLEQITHKLGMPQLDDERWARHPLVYLMEAADDICYGLIDLEDGLEMELLEYSEVEALLLGLVGDDLPDTYRQLGPRDSRRRKLAILRGKAIEHLTNAAARAFVDQQQALLAGQLAGDLVEHMHGPAKLCVQRAKAIAREKIFQDKRKTLHEIGAYTTLEILLNAFCGAALEQYGGHTPSFKNRRILDLLGRNAPDPQWPLYRAFLQVIDFIAGMTDSYATEMAREMTGRSSEGHHHHHH", "soluble on expression in E. coli": "soluble"}, {"sequence": "MSLDYEIFNPYEGLIFDMDGTLIDTMPVHAQAWTMVGKKFGYEFDFQIMYNFGGATVRTIAGEMMKAANMPLDRIEDVLAAKRELSYQLIPTQSKLLPTFEIVKSFHQKKPIALGSGSHRKIIDMLMDKLAIAPYFNAIVSADDVKEHKPHPETFLRCAELIQANPSRCIVFEDADLGVQAGLSAGMDVFDVRTREIISPREGHHHHHH", "soluble on expression in E. coli": "soluble"}, {"sequence": "MSLDYNNITEALQAFRTEKAYRHAPLRSCFFDMDGVLFDSMPAHARSWVEAAGECGIAAEPLDFYRWEGQKGSDTIKILFERGYGRLPTEKEIADMYGRKSQLFALYNSGNVIDDAPALVSDVCDRGLRIMLVTGSSQTDILQRLQRSYGDNFSPANMVTGADVHRGKPHPEPYLKALECVGMSPSEAFVVENAPLGVRAAVDAGIFTIAVNTGCLPDADLWDAGASLVLPSMAVLRSLLGELLTESLSSSAEGHHHHHH", "soluble on expression in E. coli": "soluble"}, {"sequence": "MSLEAKEVYFEQRGDIGYIVINNAPENMITLSLLEEFSNIVENSIINSKIKGIIITGKGRHFSSGTDIGKLKQTILKTAYIKENNSLVECSEFKRYIDALSSLYSINIPVISAINGLCIGSGFEIALHSHIRICSKGSIVGSPESTFGLMPGLGGISRYVQLCGLGKALELVLSGDLLSVNEALEIGIIDKIVKKNEISDYCNRLMEYILKNEMIYSKSKINSYIKLCDEGHHHHHH", "soluble on expression in E. coli": "soluble"}, {"sequence": "MSLEALGVAVVGFGWMGRVHTQAYARVRHHYPHLALRPELVTVAEEVPGRAEEAAAQFGFASTTRDWREVAADPRVHAVSITAPNFLHREIAVAMAGAGKHIWVEKPVGLSSDDARAVADAVSGAGVQGAVGFNYRNAPAVETARRLIAAGEIGTVTHARLRFFSDYAAHPEGALTWRYERERGGSGVLGDLASHGADLARFLLGDIASLTADTAVFVPERARPASATAGHARATGGEPGPVENEDYVSCLLRFASGARGVLEACRVSVGEQNNYGFEVHGTTGAVFWDFRRMNELRVSRGTEYQDQPVSTVYVGPGDGEFAAFQPGAANAMGYDDLKVVEAHRFLRSIAEGTPYGATLSDAVHSAAVLEAMSRSAERGTWVSPGEGHHHHHH", "soluble on expression in E. coli": "soluble"}, {"sequence": "MSLEEQLYKRDPVSGAILVPMTVNDQPIEKNGDKMPLKFKLGPLSYQNMAFITAKDKYKLYPVRIPRLDTSKEFSAYVSGLFEIYRDLGDDRVFNVPTIGVVNSNFAKEHNATVNLAMEAILNELEVFIGRVKDQDGRVNRFYELEESLTVLNCLRTMYFILDGQDVEENRSEFIESLLNWINRSDGEPDEEYIEQVFSVKDSTAGKKVFETQYFWKLLNQLVLRGLLSQAIGCIERSDLLPYLSDTCAVSFDAVSDSIELLKQYPKDSSSTFREWKNLVLKLSQAFGSSATDISGELRDYIEDFLLVIGGNQRKILQYSRTWYESFCGFLLYYIPSLELSAEYLQMSLEANVVDITNDWEQPCVDIISGKIHSILPVMESLDSCTAAFTAMICEAKGLIENIFEGEKNSDDYSNEDNEMLEDLFSYRNGMASYMLNSFAFELCSLGDKELWPVAIGLIALSATGTRSAKKMVIAELLPHYPFVTNDDIEWMLSICVEWRLPEIAKEIYTTLGNQMLSAHNIIESIANFSRAGKYELVKSYSWLLFEASCMEGQKLDDPVLNAIVSKNSPAEDDVIIPQDILDCVVTNSMRQTLAPYAVLSQFYELRDREDWGQALRLLLLLIEFPYLPKHYLVLLVAKFLYPIFLLDDKKLMDEDSVATVIEVIETKWDDADEKSSNLYETIIEADKSEGHHHHHH", "soluble on expression in E. coli": "not soluble"}]}]}
